Source: publication PMC4906244
pKd: −log10 of the molar value.

Test system: His6-ComPsub (Neisseria subflava NJ9703), PDB:2NBA_1
Assay: SPR
Conditions: DNA immobilized on neutravidin chip; EMSA: 20 mM Tris-Cl pH 8, 50 mM NaCl, 2.5 mM Mg2+, ambient temperature; SPR: 20 mM Tris pH 8, 150 mM NaCl, 0.05% Tween 20, 25 C; NMR: 50 mM sodium phosphate pH …

## TGACCAGGCCGTCTGAACAAAC (double strand) [DUSvar1 ds primer (biotinylated)]
  pKd: 4.28
